± gives the uncertainty stated by the source.

The data set can be described thus: self-splicing fitness, log relative to wild type (ln ratio); higher = more splicing; Tetrahymena group I intron in knt gene, E. coli kanamycin selection, DiMSum; sequences stand for … in CUCUCU…GGAGGGAAAAGUUAUCAGGCAUGCACCUGGUAGCUAGUCUUUAAACCAAUAGAUUGCAUCGGUUUAAAAGGCAAGACCGUCAAAUUGCGGGAAAGGGGUCAACAGCCGUUCAGUACCAAGUCUCAGGGGAAACUUUGAGAUGGCCUUGCAAAGGGUAUGGUAAUAAGCUGACGGACAUGGUCCUAACCACGCAGCCAAGUCCUAAGUCAACAGAUCUUCUGUUGAUAUGGAUGCAGUUCACAGACUAAAUGUCGGUCGGGGAAGAUGUAUUCUUCUCAUAAGAUAUAGUCGGACCUCUCCUUAAUGGGAGCUAGCGGAUGAAGUGAUGCAACACUGGAGCCGCUGGGAACUAAUUUGUAUGCGAAAGUAUAUUGAUUAGUUUUGGAGUACUCGUGGUCG
In short, it runs like this: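 Pooled colonies went to amplicon sequencing on an Illumina HiSeq 2500 after six replicate transformations. The plates were LB agar with 100 μg/mL carbenicillin, 50 μM IPTG and 0.2% rhamnose, with or without 25 μg/mL kanamycin, incubated overnight at 37°C or 30°C. The E. coli BL21(DE3) library had all eight P1ex-region intron nucleotides randomised, the intron placed in the knt kanamycin-resistance gene on pET-22b(+). DiMSum fitness is the error-weighted combination of replicate fold changes, kanamycin against none, normalised to wild type.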

As to CCCUAGCAAUAUUACGAAUC, the “self-splicing fitness (ln)” value is, setting by setting: (30 °C) -3.92 ± 0.22; (37 °C) -2.61 ± 0.18.

As for GUUUAGCAAUAUUACGGUUU, the “self-splicing fitness (ln)” value reads like this: (30 °C) -1.32 ± 0.1; (37 °C) -0.0737 ± 0.13.

As for GUGAAGCAAUAUUACGUAGA, the “self-splicing fitness (ln)” value runs as follows: (30 °C) -2.33 ± 0.17; (37 °C) -0.683 ± 0.17.

Turning to AGCGAGCAAUAUUACGAAUA, the “self-splicing fitness (ln)” value runs as follows: (30 °C) -3.75 ± 0.46; (37 °C) -3.32 ± 0.37.

For GUAUAGCAAUAUUACGGACA, the “self-splicing fitness (ln)” value is -2.7 ± 0.27 (30 °C) and -1.1 ± 0.15 (37 °C).

For the sequence GGCAAGCAAUAUUACGCAAU, the “self-splicing fitness (ln)” value (30 °C) was -1.03 ± 0.097 and the “self-splicing fitness (ln)” value (37 °C) was found to be 0.802 ± 0.11.

Consider GCUCAGCAAUAUUACGAUCU, for which the “self-splicing fitness (ln)” value is -0.418 ± 0.094 (30 °C) and -0.185 ± 0.099 (37 °C).

Take UCCCAGCAAUAUUACGACAA: the “self-splicing fitness (ln)” value was -2.16 ± 0.15 (30 °C) and -1.37 ± 0.14 (37 °C).

Regarding GAAUAGCAAUAUUACGUACC, the “self-splicing fitness (ln)” value is, setting by setting: (30 °C) -0.757 ± 0.19; (37 °C) -0.37 ± 0.3.

As for CCGCAGCAAUAUUACGGAAU, the “self-splicing fitness (ln)” value (30 °C) was -4.02 ± 0.25 and the “self-splicing fitness (ln)” value (37 °C) is -2.89 ± 0.34.

Regarding UGGAAGCAAUAUUACGUGAC, the “self-splicing fitness (ln)” value reads like this: (30 °C) -2.76 ± 0.34; (37 °C) -1.75 ± 0.4.

For the sequence ACGCAGCAAUAUUACGGACU, the “self-splicing fitness (ln)” value runs as follows: (30 °C) -0.613 ± 0.081; (37 °C) 0.0817 ± 0.098.

With CGCAAGCAAUAUUACGGCCA, the “self-splicing fitness (ln)” value runs as follows: (30 °C) -1.14 ± 0.13; (37 °C) -0.716 ± 0.12.

With UGUGAGCAAUAUUACGCAUC, the “self-splicing fitness (ln)” value (37 °C) is -2.15 ± 0.26.

Consider UCCGAGCAAUAUUACGCGAA, for which the “self-splicing fitness (ln)” value is -2.94 ± 0.4 (30 °C) and -1.84 ± 0.4 (37 °C).

In the case of UGUAAGCAAUAUUACGCUGG, the “self-splicing fitness (ln)” value reads like this: (30 °C) -1.24 ± 0.15; (37 °C) -1.85 ± 0.19.

On to AGGUAGCAAUAUUACGGAUC, for which the “self-splicing fitness (ln)” value is -1.721 ± 0.017 (30 °C) and -0.787 ± 0.034 (37 °C).

As to UACGAGCAAUAUUACGGACU, under “30 °C”, the “self-splicing fitness (ln)” value was -2.36 ± 0.23.

Consider UGUGAGCAAUAUUACGGGUA, for which the “self-splicing fitness (ln)” value by setting is: (30 °C) -2.92 ± 0.2; (37 °C) -2.86 ± 0.31.

Consider AACCAGCAAUAUUACGAGCG, for which the “self-splicing fitness (ln)” value is, setting by setting: (30 °C) -1.14 ± 0.072; (37 °C) -0.281 ± 0.084.

On to GGGCAGCAAUAUUACGGACG, for which the “self-splicing fitness (ln)” value runs as follows: (30 °C) -1.01 ± 0.056; (37 °C) 0.591 ± 0.078.

Turning to CCCAAGCAAUAUUACGGUAG, the “self-splicing fitness (ln)” value reads like this: (30 °C) -2.45 ± 0.086; (37 °C) -1.77 ± 0.087.

Consider GAGAAGCAAUAUUACGAAAU, for which the “self-splicing fitness (ln)” value (30 °C) is -3.17 ± 0.23 and the “self-splicing fitness (ln)” value (37 °C) is -1.63 ± 0.19.

CAUGAGCAAUAUUACGGCCA: the “self-splicing fitness (ln)” value (37 °C) was -1.36 ± 0.41.

With ACAAAGCAAUAUUACGCCGU, the “self-splicing fitness (ln)” value by setting is: (30 °C) -2.44 ± 0.16; (37 °C) -1.41 ± 0.21.

Turning to GGGGAGCAAUAUUACGGAGU, the “self-splicing fitness (ln)” value (30 °C) is -1.01 ± 0.41.

On to AUGGAGCAAUAUUACGUCAC, for which, for the setting “30 °C”, the “self-splicing fitness (ln)” value is -3.23 ± 0.37.

For AUUGAGCAAUAUUACGCUAA, the “self-splicing fitness (ln)” value is, setting by setting: (30 °C) -2.5 ± 0.16; (37 °C) -1.54 ± 0.16.

Turning to GCUCAGCAAUAUUACGAGCA, the “self-splicing fitness (ln)” value by setting is: (30 °C) -2.63 ± 0.16; (37 °C) -1.09 ± 0.11.

For the sequence AUUGAGCAAUAUUACGGUGG, the “self-splicing fitness (ln)” value reads like this: (30 °C) -3.84 ± 0.46; (37 °C) -1.27 ± 0.15.

For UGCGAGCAAUAUUACGCGGU, the “self-splicing fitness (ln)” value (30 °C) was -2.46 ± 0.17 and the “self-splicing fitness (ln)” value (37 °C) is -2.43 ± 0.19.

On to AACAAGCAAUAUUACGCGCG, for which the “self-splicing fitness (ln)” value was -0.623 ± 0.093 (30 °C) and 0.651 ± 0.11 (37 °C).

For CGGGAGCAAUAUUACGAUUU, the “self-splicing fitness (ln)” value is -3.64 ± 0.33 (30 °C) and -1.2 ± 0.24 (37 °C).

Consider CUGAAGCAAUAUUACGUUCG, for which the “self-splicing fitness (ln)” value is, setting by setting: (30 °C) 0.231 ± 0.06; (37 °C) -0.181 ± 0.082.

With AAAUAGCAAUAUUACGUGAG, the “self-splicing fitness (ln)” value is, setting by setting: (30 °C) -1.19 ± 0.078; (37 °C) -0.609 ± 0.11.

Take GUAUAGCAAUAUUACGUCCC: the “self-splicing fitness (ln)” value is, setting by setting: (30 °C) -1.75 ± 0.12; (37 °C) -0.594 ± 0.16.

Take AAAGAGCAAUAUUACGAAAG: the “self-splicing fitness (ln)” value by setting is: (30 °C) -3.63 ± 0.24; (37 °C) -3.18 ± 0.24.

Consider GCGCAGCAAUAUUACGUUCG, for which the “self-splicing fitness (ln)” value (30 °C) is -1.7 ± 0.068 and the “self-splicing fitness (ln)” value (37 °C) was -1.47 ± 0.096.

In the case of UCAGAGCAAUAUUACGUAGG, the “self-splicing fitness (ln)” value by setting is: (30 °C) -0.836 ± 0.12; (37 °C) -0.744 ± 0.17.

With CUCUAGCAAUAUUACGGACU, the “self-splicing fitness (ln)” value (37 °C) is -4.16 ± 0.39.
